Experimental data from publication PMC3479641 (Structure (London, England : 1993), 2012).

B1: Csd2 from B. halodurans, Strep-II-tagged, co-expressed with Cas5d, Csd1 and pre-crRNA (natural protein, UniProt Q9KFY1 1-283, looked up)
chain: MTILDHKIDFAVILSVTKANPNGDPLNGNRPRQNYDGHGEISDVAIKRKIRNRLLDMEEPIFVQSDDRKADSFKSLRDRADSNPELAKMLKAKNASVDEFAKIACQEWMDVRSFGQVFAFKGSNLSVGVRGPVSIHTATSIDPIDIVSTQITKSVNSVTGDKRSSDTMGMKHRVDFGVYVFKGSINTQLAEKTGFTNEDAEKIKRALITLFENDSSSARPDGSMEVHKVYWWEHSSKLGQYSSAKVHRSLKIESKTDTPKSFDDYAVELYELDGLGVEVIDGQ
B2: Csd1 from B. halodurans, co-expressed with Cas5d, Csd2 and pre-crRNA (natural protein, UniProt Q9KFY2 1-627, looked up)
chain: MSWLLHLYETYEANLDQVGKTVKKGEDREYTLLPISHTTQNAHIEVTLDEDGDFLRAKALTKESTLIPCTEEAASRSGSKVAPYPLHDKLSYVAGDFVKYGGKIKNQDDAPFDTYIKNLGEWANSPYATEKVKCIYTYLKKGRLIEDLVDAGVLKLDENQQLIEKWEKRYEELLGEKPAIFSSGATDQASAFVRFNVFHPESIDDVWKDKEMFDSFISFYNDKLGEEDICFVTGNRLPSTERHANKIRHAADKAKLISANDNSGFTFRGRFKTSREAVGISYEVSQKAHNALKWLIHRQSKSIDDRVFLVWSNDNSLVPNPDEDAVDIMKHANRELERDPDTGQIFAGEVKKAIGGYRSDLNYQPEVHILVLDSATTGRMAVLYYRSLNKELYLNRLEAWHDSCAWEHRYRRDEKEFISFYGAPATKDIAFAAYGPRASEKVIKDLMERMLPCIVDGRRVPKDIVRSAFQRASNPVSMERWEWEKTLSITCALIRKMHIEQKEEWGVPLDKSSTDRSYLFGRLLAVADVLERGALGKDETRATNAIRYMNSYSKNPGRTWKTIQESLQPYQAKLGTKATYLSKLVDEIGDQFEPGDFNNNPLTEQYLLGFYSQRRELYKKKEEETNQ

Molecular target: T1, Cas5d from B. halodurans, His6-tagged, co-expressed with Csd1, Csd2 and pre-crRNA (B. halodurans, UniProt Q9KFY3 1-236)
T1 sequence: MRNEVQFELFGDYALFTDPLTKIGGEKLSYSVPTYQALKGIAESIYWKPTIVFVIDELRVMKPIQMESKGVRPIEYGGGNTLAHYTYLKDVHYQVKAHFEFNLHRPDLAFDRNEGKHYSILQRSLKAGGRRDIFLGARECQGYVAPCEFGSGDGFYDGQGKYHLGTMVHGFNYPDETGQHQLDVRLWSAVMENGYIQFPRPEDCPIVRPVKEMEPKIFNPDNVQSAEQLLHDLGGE
Experiment: SEC

Binder | stoichiometry N
B1 | ~6 copies in the complex (with two copies of Cas5d and one copy of Csd1)
B2 | ~1 copies in the complex (with two copies of Cas5d and six copies of Csd2)
